Assay results published in publication PMC12440737 (2025).

Molecular target: T1, IL-6 receptor (Homo sapiens, UniProt P08887)
T1 chain: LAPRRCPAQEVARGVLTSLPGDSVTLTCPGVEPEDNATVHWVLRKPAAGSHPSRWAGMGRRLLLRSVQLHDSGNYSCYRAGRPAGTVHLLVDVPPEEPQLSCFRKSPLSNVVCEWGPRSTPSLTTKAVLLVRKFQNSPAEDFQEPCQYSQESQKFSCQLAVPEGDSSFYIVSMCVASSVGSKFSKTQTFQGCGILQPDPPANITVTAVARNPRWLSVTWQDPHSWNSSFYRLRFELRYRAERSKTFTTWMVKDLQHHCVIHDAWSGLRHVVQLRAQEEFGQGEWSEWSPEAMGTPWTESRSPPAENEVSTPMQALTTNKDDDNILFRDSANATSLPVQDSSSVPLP
Test: SPR

Kd: 9.9 nM
B1: Tocilizumab (antibody, V domains shown)
VH: QVQLQESGPGLVRPSQTLSLTCTVSGYSITSDHAWSWVRQPPGRGLEWIGYISYSGITTYNPSLKSRVTMLRDTSKNQFSLRLSSVTAADTAVYYCARSLARTTAMDYWGQGSLVTVSS
VL: DIQMTQSPSSLSASVGDRVTITCRASQDISSYLNWYQQKPGKAPKLLIYYTSRLHSGVPSRFSGSGSGTDFTFTISSLQPEDIATYYCQQGNTLPYTFGQGTKVEIK
